The record followed here is patent US9580464B2, “Anti-inflammatory proteins and peptides and methods of preparation and use thereof” (ManukaMed Limited, priority 2012, dated 2017).

Experiment [1] is described as follows: Anti-inflammatory activity of MGO-modified proteins (results not shown). The text has this:
As used herein, “anti-inflammatory capacity” is defined as the capacity to clinically reduce inflammation or the symptoms of inflammation in cellular tissue. Anti-inflammatory capacity may be determined using the phagocytosis inhibition assay (PIA) described in PCT/NZ PCT/NZ/2011/000271 or the DCFDA assay also described in PCT/NZ/2011/000271 or the anti-inflammatory capacity may also be determined by the inhibition of Cathepsin B as described in detail below.

The target in experiment [2] is Cathepsin B from bovine spleen (Bos taurus, UniProt P07688). As to the kind of experiment: Assay for Cathepsin B activity / inhibition (Z-Lys-pNP substrate, absorbance 330 nm). Type of experiment: biochemical.
The target of another experiment is Cathepsin B (Bos taurus, UniProt P07688). Kind of experiment: Cathepsin B digestion of MGO-modified MRJP, native PAGE. It is filed as biochemical. To be noted: 37° C. As for the experimental part:
Cathepsin B working reagent solution was prepared (1:50) from Cathepsin B stock solution in the buffer system containing 100 mM sodium acetate, 2 mM EDTA and 2.5 mM 2-mercaptoethanol, pH 5.0.
Cathepsin digestion was performed on selected samples of SEC fractions. Typically, 10 μl of Cathepsin B working solution was mixed with 20 μl of protein sample and digested at 37° C. for overnight. After hydrolysis, the digests were prepared for native PAGE analysis.
Samples used in the Cathepsin B digestion were: 1) Crude MRJP protein; 2) Desalted fraction (first big peak) of MGO-modified MRJP at pH 4.0 for 9 days sample; 3) Desalted fraction (first big peak) of MGO-modified MRJP in PBS (pH 7.5) for 9 days sample; 4) SEC fractions of pH 5.0 fractions; 5) SEC fractions of reaction 221.
For hydrolysis, 10 μL of a 1 mg/mL solution (10 μg) of Cathepsin B was used. Thus, a very high level of enzyme activity was employed for these experiments. Moreover, the reaction was performed over two days at 37° C. Under these conditions, we expected to see complete or near complete hydrolysis of the MRJP proteins.

[3] abbreviates: Table 8, MRJP5 derived synthetic peptides, MGO-modified.
Where [4] appears, read: Table 8, MRJP5 derived synthetic peptides, unmodified.
Where [5] appears, read: Table 9, additional synthetic peptides, MGO-modified.
[6] abbreviates: Table 9, additional synthetic peptides, unmodified.
[7] abbreviates: Table 6, MRJP1 derived synthetic peptides, MGO-modified.
Where [8] appears, read: Table 6, MRJP1 derived synthetic peptides, unmodified.

As to “MGO-modified bovine serine albumin: bovine serum albumin reacted with methylglyoxal, comparison protein [reference compound]”, the “Anti-inflammatory activity” value in experiment [1] was “no anti-inflammatory activity”.

For the molecule “H-MDK-OH (H-Met-Asp-Lys-OH) [MRJP5 derived synthetic peptide]”, the “Cathepsin B remaining activity (% of control)” value turned out to be 70.62 ± 12.34 in experiment [2] (setting [3]) and 104.25 ± 2.73 in experiment [2] (setting [4]).

For “Ac-MHR-OH (Ac-Met-His-Arg-OH) [MRJP5 derived synthetic peptide]”, the “Cathepsin B remaining activity (% of control)” value was 90.13 ± 17.28 in experiment [2] (setting [3]) and 101.26 ± 4.59 in experiment [2] (setting [4]).

Take “Ac-LIR-NH2 (Ac-Leu-Ile-Arg-NH2) [synthetic peptide derived from MRJP2, 4 (see Leu408), amidated C-terminus]”: the “Cathepsin B remaining activity (% of control)” value in experiment [2] (setting [5]) came out at 72.56; in experiment [2] (setting [6]), 65.39 ± 2.75.

For the molecule “Ac-SKLH-OH [synthetic peptide derived from the C-terminus of MRJP3]”, the “Cathepsin B remaining activity (% of control)” value in experiment [2] (Table 3, peptides from C-terminus of MRJP3, 2 mM MGO-modified peptide) was 67.57 ± 1.73; in experiment [2] (Table 3, peptides from C-terminus of MRJP3, 2 mM unmodified peptide) it was 146.35 ± 2.91.

Turning to “H-CDR-OH (H-Cys-Asp-Arg-OH) [MRJP1 derived synthetic peptide]”, the “Cathepsin B remaining activity (% of control)” value in experiment [2] (setting [7]) turned out to be 96.01 ± 6.45; in experiment [2] (setting [8]), 165.10 ± 0.38.

Regarding “Ac-LVK-OH (Ac-Leu-Val-Lys-OH) [synthetic peptide derived from MRJP3 (see Leu170)]”, the “Cathepsin B remaining activity (% of control)” value in experiment [2] (setting [5]) turned out to be 80.84; in experiment [2] (setting [6]), 143.92 ± 3.15.

In the case of “Ac-MQK-OH (Ac-Met-Gln-Lys-OH) [MRJP1 derived synthetic peptide]”, the “Cathepsin B remaining activity (% of control)” value was determined as 69.15 ± 4.87 in experiment [2] (setting [7]) and 121.24 ± 3.57 in experiment [2] (setting [8]).

As for “Ac-MDK-OH (Ac-Met-Asp-Lys-OH) [MRJP5 derived synthetic peptide]”, the “Cathepsin B remaining activity (% of control)” value in experiment [2] (setting [3]) turned out to be 99.38 ± 1.63; in experiment [2] (setting [4]), 109.67 ± 3.13.

On to “H-LQK-OH (H-Leu-Gln-Lys-OH) [MRJP5 derived synthetic peptide]”, for which the “Cathepsin B remaining activity (% of control)” value in experiment [2] (setting [3]) is 95.26 ± 5.54; in experiment [2] (setting [4]) it was 102.47 ± 4.27.

B1: MGO-modified MRJP3: major royal jelly protein 3 chemically modified by methylglyoxal (protein, UniProt Q17060 21-544, looked up)
Major royal jelly protein 3: AAVNHQRKSANNLAHSMKVIYEWKHIDFDFGSDERRDAAIKSGEFDHTKNYPFDVDRWRDKTFVTIERNNGVPSSLNVVTNKKGKGGPLLRPYPDWSFAKYEDCSGIVSAFKIAVDKFDRLWVLDSGLVNNNQPMCSPKLLTFDLKTSKLVKQVEIPHNIAVNATTGMGELVSLAVQAIDRTNTMVYIADEKGEGLIMYQNSDDSFHRLTSNTFDYDPRYTKLTVAGESFTVKNGIYGIALSPVTNNLYYSPLLSHGLYYVDTEQFSNPQYEENNVQYEGSQDILNTQSFGKVVSKNGVLFLGLVGNSGIACVNEHQVLQRESFDVVAQNEETLQMIVSMKIMENLPQSGRINDPEGNEYMLALSNRMQKIINNDFNFNDVNFRILGANVDDLMRNTRCGRYHNQNAGNQNADNQNADNQNANNQNADNQNANKQNGNRQNDNRQNDNKQNGNRQNDNKQNGNRQNDNKQNGNRQNGNKQNDNKQNGNRQNDNKRNGNRQNDNQNNQNDNNRNDNQVHHSSKLH
modifications: methylglyoxal-modified
notes: major royal jelly protein 3 chemically modified by methylglyoxal
As for B1, the “Anti-inflammatory activity” value in experiment [1] is “enhanced anti-inflammatory properties”.

B2: monomeric form of royalactin: unmodified monomeric MRJP1 (royalactin) (protein)
chain: NILRGESLNKSLPILHEWKFFDYDFGSDERRQDAILSGEYDYKNNYPSDIDQWHDKIFVTMLRYNGVPSSLNVISKKVGDGGPLLQPYPDWSFAKYDDCSGIVSASKLAIDKCDRLWVLDSGLVNNTQPMCSPKLLTFDLTTSQLLKQVEIPHDVAVNATTGKGRLSSLAVQSLDCNTNSDTMVYIADEKGEGLIVYHNSDDSFHRLTSNTFDYDPKFTKMTIDGESYTAQDGISGMALSPMTNNLYYSPVASTSLYYVNTEQFRTSDYQQNDIHYEGVQNILDTQSSAKVVSKSGVLFFGLVGDSALGCWNEHRTLERHNIRTVAQSDETLQMIASMKIKEALPHVPIFDRYINREYILVLSNKMQKMVNNDFNFDDVNFRIMNANVNELILNTRCENPDNDRTPFKISIHL
As to B2, the “Hydrolysis by Cathepsin B” value with Cathepsin B is recorded as “readily degraded”.

B3: MGO-modified MRJP1: major royal jelly protein 1 (apalbumin 1) chemically modified by methylglyoxal (protein, UniProt O18330 20-432, looked up)
Major royal jelly protein 1: B2 chain
modifications: methylglyoxal-modified
notes: major royal jelly protein 1 (apalbumin 1) chemically modified by methylglyoxal
B3: the “Anti-inflammatory activity” value in experiment [1] is on record as “enhanced anti-inflammatory properties”.

B4: native hexamer form of MRJP1: unmodified major royal jelly protein 1 (SEQ ID NO: 1), about 300 kDa hexamer (protein, listed as Apis mellifera)
chain: MTRLFMLVCLGIVCQGTTGNILRGESLNKSLPILHEWKFFDYDFGSDERRQDAILSGEYDYKNNYPSDIDQWHDKIFVTMLRYNGVPSSLNVISKKVGDGGPLLQPYPDWSFAKYDDCSGIVSASKLAIDKCDRLWVLDSGLVNNTQPMCSPKLLTFDLTTSQLLKQVEIPHDVAVNATTGKGRLSSLAVQSLDCNTNSDTMVYIADEKGEGLIVYHNSDDSFHRLTSNTFDYDPKFTKMTIDGESYTAQDGISGMALSPMTNNLYYSPVASTSLYYVNTEQFRTSDYQQNDIHYEGVQNILDTQSSAKVVSKSGVLFFGLVGDSALGCWNEHRTLERHNIRTVAQSDETLQMIASMKIKEALPHVPIFDRYINREYILVLSNKMQKMVNNDFNFDDVNFRIMNANVNELILNTRCENPDNDRTPFKISIHL
modifications: native hexamer
Turning to B4, the “Hydrolysis by Cathepsin B” value in the experiment with Cathepsin B is recorded as “readily degraded”.
